The results in this text go back to US20250333498A1 (BIO THERA SOLUTIONS, published 2025).

For assay [1], the target named is T1, human CLDN18.2 (human).
T1 construct: The cell line is named under assay; also called claudin-18 isoform 2
The assay can be described thus: flow cytometry on KATOIII cells (CLDN18.2 positive), PE anti-human IgG-Fc secondary antibody. For orientation: Flow cytometry measures light scatter and fluorescence of single cells or particles in a stream.
Protocol: (§1) Flow cytometry was used to detect the binding capacity of anti-CLDN18.2 antibodies and ADCs to cells expressing CLDN18.2, and the specificity of not binding to CLDN18.1 of the antibody was further detected. […] The mixture was incubated at 4° C. for 1 h and washed twice with PBS.

For assay [2], the target named is T1, human CLDN18.2. Nature of the assay: flow cytometry on KATOIII cells (item 3); KATOIII cells.
Protocol: as §1
For assay [3], the target named is T1, human CLDN18.2. Nature of the assay: flow cytometry on CHO-CLDN18.2 cells; CHO-CLDN18.2 cells.
Protocol: as §1
Another assay deals with human CLDN18.1 (human, UniProt P56856 1-261). The assay can be described thus: flow cytometry on CHO-CLDN18.1 cells, PE anti-human IgG-Fc secondary antibody.
The target in assay [4] is T1, human CLDN18.2. Nature of the assay: cell-based or functional assay.
Assay [5] deals with T1, human CLDN18.2. Nature of the assay: flow cytometry on CHO-CLDN18.2 cells.
For assay [6], the target named is T1, human CLDN18.2. Nature of the assay: flow cytometry on KATOIII cells (item 2).
Assay [7] deals with T1, human CLDN18.2. The assay can be described thus: flow cytometry on KATOIII cells (item 2); KATOIII cells; item 2, compared with IMAB362.
Protocol: as §1
Assay [8] deals with T1, human CLDN18.2. The assay can be described thus: flow cytometry on KATOIII cells (item 3); KATOIII cells; item 3, compared with the humanized antibodies.
Protocol: as §1

human CLDN18.1, sequence (P56856 whole entry): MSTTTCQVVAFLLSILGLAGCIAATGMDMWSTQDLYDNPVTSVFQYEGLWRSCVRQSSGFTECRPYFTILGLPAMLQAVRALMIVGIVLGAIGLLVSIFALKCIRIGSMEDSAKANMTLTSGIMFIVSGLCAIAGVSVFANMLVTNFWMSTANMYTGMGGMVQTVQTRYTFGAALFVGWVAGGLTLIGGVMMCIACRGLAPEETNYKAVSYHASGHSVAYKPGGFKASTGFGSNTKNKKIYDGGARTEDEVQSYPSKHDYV
Protocol for human CLDN18.1: as §1

B1: chimeric antibody CH101H1-K-1 (antibody, human IgG1, kappa, V domains shown)
VH: EVQLQESGPELVKPGASVKISCKASGYSFTSYYIHWVKQRPGQGLEWIGWIYPGSGNTKYNEKFKGKATLTADTSSSTAYMQLSSLTSEDSAVYYCARGMDYGNYYLDYWGQGTTLTVSS
VL: DIVMTQSHKFMSTSVGDRVSITCKASQDVGTAVAWYQQKPGQSPKLLIYWASTRHTGVPDRFTGSGSGTDFTLTISNVQSEDLADYFCQQYSSYLTFGAGTKLELKR
notes: Chimeric antibody (murine variable region + human constant region)
One may read the EC50 (read off the curve) as the concentration needed to bring the measured effect to its halfway point. Read a high EC50 (read off the curve) as a need for much substance. As for B1, in the assay with human CLDN18.2 [1], the “EC50 (read off the curve)” value is about 10 nM.

B2: humanized Antibody H239H-2a-K-6a (antibody, human IgG1, kappa, V domains shown)
VH: EVQLLESGGGLVQPGGSLRLSCAASGFTFSDYGMHWVRQAPGKGLEWVAYISRGRSTTYSTDTVKGRFTISRDSSKNTLYLQMNSLRAEDTAVYYCARGSYYGNAMDYWGQGTLVTVSS
VL: DIVMTQSPDSLAVSLGERATINCKSSQSLLNSGNQRNYLTWYQQKPGQPPKLLIYWASTRESGVPDRFSGSGSGTDFTLTISSLQAEDVAVYYCQSAYSYPFTFGGGTKLEIKR
notes: Humanized antibody (humanized variable region + human constant region)
What is called EC50 is the midpoint of the concentration-response curve. Low values mean an effect from little substance, high ones a need for much substance. For B2, the values for the EC50 with human CLDN18.2 [2] and with human CLDN18.2 [3] were 6.2 nM and 22.8 nM, respectively. Moreover, the binding result with human CLDN18.1 is reported as “no binding (tested: about 330 nM)”.

B3: humanized Antibody H239H-2b-K-6a (antibody, human IgG1, kappa, V domains shown)
VH: EVQLLESGGGLVQPGGSLRLSCAASGFTFSDYGMHWVRQAPGKGLEWVAYISRGRSTTYSTDTVKGRFTISRDNSKNTLYLQMNSLRAEDTAVYYCARGSYYGNAMDYWGQGTLVTVSS
VL: DIVMTQSPDSLAVSLGERATINCKSSQSLLNSGNQRNYLTWYQQKPGQPPKLLIYWASTRESGVPDRFSGSGSGTDFTLTISSLQAEDVAVYYCQSAYSYPFTFGGGTKLEIKR
notes: as for B2
Molecule B3 yielded an EC50 with human CLDN18.2 [2] of 6.92 nM. Further, the EC50 with human CLDN18.2 [3] was 23.3 nM. Besides, the binding result in the assay with human CLDN18.1 is “no binding (tested: about 330 nM)”. Also, in the assay with human CLDN18.2 [4], the “ADCC Reporter Bioassay EC50 (luciferase, Jurkat-NFAT-luc-FcγRIIIa effector cells)” value amounted to 0.0625 nM and the “CDC IC50 (cell killing rate of CHO-CLDN18.2 cells with 5% human serum complement, CCK-8)” value was found to be 0.291 nM.

B4: positive Antibody IMAB362 (antibody, V domains shown)
VH: QVQLQQPGAELVRPGASVKLSCKASGYTFTSYWINWVKQRPGQGLEWIGNIYPSDSYTNYNQKFKDKATLTVDKSSSTAYMQLSSPTSEDSAVYYCTRSWRGNSFDYWGQGTTLTVSS
VL: DIVMTQSPSSLTVTAGEKVTMSCKSSQSLLNSGNQKNYLTWYQQKPGQPPKLLIYWASTRESGVPDRFTGSGSGTDFTLTISSVQAEDLAVYYCQNDYSYPFTFGSGTKLEIKR
Turning to B4, in the assay with human CLDN18.2 [4], the “ADCC Reporter Bioassay EC50 (luciferase, Jurkat-NFAT-luc-FcγRIIIa effector cells)” value worked out at 0.795 nM and the “CDC IC50 (cell killing rate of CHO-CLDN18.2 cells with 5% human serum complement, CCK-8)” value turned out to be 5.87 nM. This molecule also gave a concentration giving a half-maximal response (EC50) in the assay with human CLDN18.2 [5] of 30 nM. In addition, the midpoint of the response in the assay with human CLDN18.2 [6], the EC50, lay at 8.08 nM.

B5: chimeric Antibody CH239H-2-K-6 (antibody, human IgG1, kappa, V domains shown)
VH: EVKLQESGGGLVKPGGSLKVSCAASGFTFSDYGMHWVRQAPEKGLEWVAYISRGRSTTYSTDTVKGRFTISRDSAKHTLFLQMTSLRSEDTAMYYCARGSYYGNAMDYWGQGTSVTVSS
VL: DIVMTQSPSSLTVTAGERVTMSCKSSQSLLNSGNQRNYLTWYQQKPGQPPKLLIYWASTRESGVPDRFTGSGSGTDFTLTISSVQAEDLAVYFCQSAYSYPFTFGSGTKLEIKR
notes: as for B1
B5: the EC50 with human CLDN18.2 [3] came out at 19.9 nM; in the assay with human CLDN18.2 [7] it was 6.29 nM; with human CLDN18.2 [8] it was 6.11 nM. The “EC50 (read off the curve)” value with human CLDN18.2 [1] was about 20 nM.

B6: chimeric antibody CH394H2-K-1 (antibody, human IgG1, kappa, V domains shown)
VH: EVKLQESGAELMKPGASVKLSCKATGYTFTGYWIEWVKQRPGHGLEWIGEILPGSGSTNYNEKFKGKATFTADTSSNTAYMQLSSLTTEDSAIYYCARAPLEGLRSGFAYWGQGTLVTVSA
VL: DIVLTQSPASLAVSLGQRATISCRASESVDSYGNSFMHWYQQKPGQPPKLLIYRASNLESGIPARFSGSGSRTDFTLTINPVEADDVATYYCQQSNEDPRTFGGGTKLEIKR
notes: as for B1
As for B6, the “EC50 (read off the curve)” value with human CLDN18.2 [1] was about 20 nM.
